This sample holds only a part of the variants without activity.
B1: TPR 5TU (parent)
chain: GGAUCUUCUCGAUCUAACAAAAAAGACAAAUCUGCCACAAAGCUUGAGAGCAUCUUCGGAUGCAGAGGCGGCAGCCUUCGGUGGCGCGAUAGCGCCAACGUUCUCAACUAUGACACGCAAAACGCGUGCUCCGUUGAAUGGAGUUUAUCAUG

Variants of: B1
Experiment: polymerase ribozyme fitness, log enrichment relative to wild type (log ratio); higher = more active; in vitro selection for triplet polymerase activity
Outline: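 Libraries of mutants in each subunit of a heterodimeric triplet polymerase ribozyme were generated by PCR and transcribed. In triplicate, each went through one in vitro selection round: annealing with biotinylated primer, partner subunit and triplets; frozen incubation at −7 °C; gel excision of extended constructs; streptavidin-bead capture; RT-PCR. Fitness, taken from Illumina sequencing of input and output libraries, is the logarithm of a genotype's enrichment over wild-type enrichment, averaged across replicates with inverse-variance weights. The logarithm is base 2, and genotypes needed ≥10 input reads and ≥1 read per output to be kept.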

Row | Variant | polymerase ribozyme fitness (log ratio)
1 | GGAUCUUCUCGAUCUAACAAAAAAGACAAAUCUGCCACAAAGCUUGAGAGCAUCUUCGGAUGCAGAGGCGGCAGCCUUCGGUGGCGCGAUAGCGCCAACGUUCUCAACUAUGACACGCAAAACGCGUGCUCCGUUGAUUGGAGUUUAUCACG [A138U U151C] | -4.01
2 | GGAUCUUCUCGAUCUAACAAAAAAGACAAAUCUGCCACAAAGCUUGAGAGCAUCUUCGGAUGCAGAGGCGGCAGCCUUCGGUGGCGCGAUAGCGCCAACGUUCUCAACUAUGACACGCAAAACGCGUGCUCCGUAGAAUGGAGUUUUUCAUG [U135A A147U] | -0.75
3 | GGAUCUUCUCGAUCUAACAAAAAAGACAAAUCUGCCACAAAGCUUGAGAGCAUCUUCGGAUGCAGAGGCGGCAGCCUUCGGUGGCGCGAUAGCGCCAACGUUCUCAACUAUGACACGCAAAACGCGUGCUCCGUUCAAUGGAGUUUAUCAGG [G136C U151G] | ≤ -4.2
4 | GGAUCUUCUCGAUCUAACAAAAAAGACAAAUCUGCCACAAAGCUUGAGAGCAUCUUCGGAUGCAGAGGCGGCAGCCUUCGGUGGCGCGAUAGCGCCAACGUUCUCAACUAUGACACGCAAAACGCGUGCUCCGUUGUAUGGAGUUUAGCAUG [A137U U148G] | ≤ -4.2
5 | GGAUCUUCUCGAUCUAACAAAAAAGACAAAUCUGCCACAAAGCUUGAGAGCAUCUUCGGAUGCAGAGGCGGCAGCCUUCGGUGGCGCGAUAGCGCCAACGUUCUCAACUAUGACACGCAAAACGCGUGCUCCGUUGAAGGGAGUUUAACAUG [U139G U148A] | -2.73
6 | GGAUCUUCUCGAUCUAACAAAAAAGACAAAUCUGCCACAAAGCUUGAGAGCAUCUUCGGAUGCAGAGGCGGCAGCCUUCGGUGGCGCGAUAGCGCCAACGUUCUCAACUAUGACACGCAAAACGCGUGCUCCGAUGAAUGGCGUUUAUCAUG [U134A A142C] | -2.66
7 | GGAUCUUCUCGAUCUAACAAAAAAGACAAAUCUGCCACAAAGCUUGAGAGCAUCUUCGGAUGCAGAGGCGGCAGCCUUCGGUGGCGCGAUAGCGCCAACGUUCUCAACUAUGACACGCAAAACGCGUGCUCCGAUGAAUGGGGUUUAUCAUG [U134A A142G] | -3.04
8 | GGAUCUUCUCGAUCUAACAAAAAAGACAAAUCUGCCACAAAGCUUGAGAGCAUCUUCGGAUGCAGAGGCGGCAGCCUUCGGUGGCGCGAUAGCGCCAACGUUCUCAACUAUGACACGCAAAACGCGUGCUCCGUUGUAUGAAGUUUAUCAUG [A137U G141A] | -3.24
9 | GGAUCUUCUCGAUCUAACAAAAAAGACAAAUCUGCCACAAAGCUUGAGAGCAUCUUCGGAUGCAGAGGCGGCAGCCUUCGGUGGCGCGAUAGCGCCAACGUUCUCAACUAUGACACGCAAAACGCGUGCUCCGUUGUAUGUAGUUUAUCAUG [A137U G141U] | -3.93
10 | GGAUCUUCUCGAUCUAACAAAAAAGACAAAUCUGCCACAAAGCUUGAGAGCAUCUUCGGAUGCAGAGGCGGCAGCCUUCGGUGGCGCGAUAGCGCCAACGUUCUCAACUAUGACACGCAAAACGCGUGCUCCGUUGAGUGGAGUUUAUCAUG [A138G] | -1.9
11 | GGAUCUUCUCGAUCUAACAAAAAAGACAAAUCUGCCACAAAGCUUGAGAGCAUCUUCGGAUGCAGAGGCGGCAGCCUUCGGUGGCGCGAUAGCGCCAACGUUCUCAACUAUGACACGCAAAACGCGUGCUCCGUUGACUGGAGUUUAUCAUG [A138C] | -3.67
12 | GGAUCUUCUCGAUCUAACAAAAAAGACAAAUCUGCCACAAAGCUUGAGAGCAUCUUCGGAUGCAGAGGCGGCAGCCUUCGGUGGCGCGAUAGCGCCAACGUUCUCAACUAUGACACGCAAAACGCGUGCUCCGUUGAUUGGAGUUUAUCAUG [A138U] | -3.87
13 | GGAUCUUCUCGAUCUAACAAAAAAGACAAAUCUGCCACAAAGCUUGAGAGCAUCUUCGGAUGCAGAGGCGGCAGCCUUCGGUGGCGCGAUAGCGCCAACGUUCUCAACUAUGACACGCAAAACGCGUGCUCCGUUGAAUAGAGUUUAUCAUG [G140A] | -2.67
14 | GGAUCUUCUCGAUCUAACAAAAAAGACAAAUCUGCCACAAAGCUUGAGAGCAUCUUCGGAUGCAGAGGCGGCAGCCUUCGGUGGCGCGAUAGCGCCAACGUUCUCAACUAUGACACGCAAAACGCGUGCUCCGUUGCGUGGAGUUUAUCAUG [A137C A138G] | -3.68
15 | GGAUCUUCUCGAUCUAACAAAAAAGACAAAUCUGCCACAAAGCUUGAGAGCAUCUUCGGAUGCAGAGGCGGCAGCCUUCGGUGGCGCGAUAGCGCCAACGUUCUCAACUAUGACACGCAAAACGCGUGCUCCGUUGAACGGAGAUUAUCAUG [U139C U144A] | -3.36
16 | GGAUCUUCUCGAUCUAACAAAAAAGACAAAUCUGCCACAAAGCUUGAGAGCAUCUUCGGAUGCAGAGGCGGCAGCCUUCGGUGGCGCGAUAGCGCCAACGUUCUCAACUAUGACACGCAAAACGCGUGCUCCGUAGAAUGGAAUUUGUCAUG [U135A G143A A147G] | ≤ -4.2
17 | GGAUCUUCUCGAUCUAACAAAAAAGACAAAUCUGCCACAAAGCUUGAGAGCAUCUUCGGAUGCAGAGGCGGCAGCCUUCGGUGGCGCGAUAGCGCCAACGUUCUCAACUAUGACACGCAAAACGCGUGCUCCGUUGUAUGGAUUUUAUCAUG [A137U G143U] | -3.39
18 | GGAUCUUCUCGAUCUAACAAAAAAGACAAAUCUGCCACAAAGCUUGAGAGCAUCUUCGGAUGCAGAGGCGGCAGCCUUCGGUGGCGCGAUAGCGCCAACGUUCUCAACUAUGACACGCAAAACGCGUGCUCCGUUUAAUGGAGGUUAUCAUG [G136U U144G] | -3.29
19 | GGAUCUUCUCGAUCUAACAAAAAAGACAAAUCUGCCACAAAGCUUGAGAGCAUCUUCGGAUGCAGAGGCGGCAGCCUUCGGUGGCGCGAUAGCGCCAACGUUCUCAACUAUGACACGCAAAACGCGUGCUCCGUUGAAGGGAGUUUAUCCUG [U139G A150C] | -3.84

Row | Variant | polymerase ribozyme fitness (log ratio)
20 | GGAUCUUCUCGAUCUAACAAAAAAGACAAAUCUGCCACAAAGCUUGAGAGCAUCUUCGGAUGCAGAGGCGGCAGCCUUCGGUGGCGCGAUAGCGCCAACGUUCUCAACUAUGACACGCAAAACGCGUGCUCCGUUGCAUGGAGUUUAUCAUG [A137C] | -3.09
21 | GGAUCUUCUCGAUCUAACAAAAAAGACAAAUCUGCCACAAAGCUUGAGAGCAUCUUCGGAUGCAGAGGCGGCAGCCUUCGGUGGCGCGAUAGCGCCAACGUUCUCAACUAUGACACGCAAAACGCGUGCUCCGUUGUAUGGAGUUUAUCAUG [A137U] | -3.39
22 | GGAUCUUCUCGAUCUAACAAAAAAGACAAAUCUGCCACAAAGCUUGAGAGCAUCUUCGGAUGCAGAGGCGGCAGCCUUCGGUGGCGCGAUAGCGCCAACGUUCUCAACUAUGACACGCAAAACGCGUGCUCCGUUGGAUGGAGUUUAUCAUG [A137G] | -1.15
23 | GGAUCUUCUCGAUCUAACAAAAAAGACAAAUCUGCCACAAAGCUUGAGAGCAUCUUCGGAUGCAGAGGCGGCAGCCUUCGGUGGCGCGAUAGCGCCAACGUUCUCAACUAUGACACGCAAAACGCGUGCUCCGUGGAAUGGAGGUUAUCAUG [U135G U144G] | -2.41
24 | GGAUCUUCUCGAUCUAACAAAAAAGACAAAUCUGCCACAAAGCUUGAGAGCAUCUUCGGAUGCAGAGGCGGCAGCCUUCGGUGGCGCGAUAGCGCCAACGUUCUCAACUAUGACACGCAAAACGCGUGCUCCGAUGAAUGUAGUUUAUCAUG [U134A G141U] | -2.41
25 | GGAUCUUCUCGAUCUAACAAAAAAGACAAAUCUGCCACAAAGCUUGAGAGCAUCUUCGGAUGCAGAGGCGGCAGCCUUCGGUGGCGCGAUAGCGCCAACGUUCUCAACUAUGACACGCAAAACGCGUGCUCCGUUAAAUGGAGUUUGUCAUG [G136A A147G] | -1.36
26 | GGAUCUUCUCGAUCUAACAAAAAAGACAAAUCUGCCACAAAGCUUGAGAGCAUCUUCGGAUGCAGAGGCGGCAGCCUUCGGUGGCGCGAUAGCGCCAACGUUCUCAACUAUGACACGCAAAACGCGUGCUCCGUUGGAUGGAGUGUAUCAUG [A137G U145G] | -1.02
27 | GGAUCUUCUCGAUCUAACAAAAAAGACAAAUCUGCCACAAAGCUUGAGAGCAUCUUCGGAUGCAGAGGCGGCAGCCUUCGGUGGCGCGAUAGCGCCAACGUUCUCAACUAUGACACGCAAAACGCGUGCUCCGUUGGAUGGAGAUUAUCAUG [A137G U144A] | -3.01
28 | GGAUCUUCUCGAUCUAACAAAAAAGACAAAUCUGCCACAAAGCUUGAGAGCAUCUUCGGAUGCAGAGGCGGCAGCCUUCGGUGGCGCGAUAGCGCCAACGUUCUCAACUAUGACACGCAAAACGCGUGCUCCGUUGAUUGGAGUUUUUCAUG [A138U A147U] | -3.38
29 | GGAUCUUCUCGAUCUAACAAAAAAGACAAAUCUGCCACAAAGCUUGAGAGCAUCUUCGGAUGCAGAGGCGGCAGCCUUCGGUGGCGCGAUAGCGCCAACGUUCUCAACUAUGACACGCAAAACGCGUGCUCCGUGGUAUGGAGUUUAUCAUG [U135G A137U] | -4.04
30 | GGAUCUUCUCGAUCUAACAAAAAAGACAAAUCUGCCACAAAGCUUGAGAGCAUCUUCGGAUGCAGAGGCGGCAGCCUUCGGUGGCGCGAUAGCGCCAACGUUCUCAACUAUGACACGCAAAACGCGUGCUCCGUAGAAUGGAGUUUAUUAUG [U135A C149U] | -0.66
31 | GGAUCUUCUCGAUCUAACAAAAAAGACAAAUCUGCCACAAAGCUUGAGAGCAUCUUCGGAUGCAGAGGCGGCAGCCUUCGGUGGCGCGAUAGCGCCAACGUUCUCAACUAUGACACGCAAAACGCGUGCUCCGCUGAAUGGCGUUUAUCAUG [U134C A142C] | -0.0581
32 | GGAUCUUCUCGAUCUAACAAAAAAGACAAAUCUGCCACAAAGCUUGAGAGCAUCUUCGGAUGCAGAGGCGGCAGCCUUCGGUGGCGCGAUAGCGCCAACGUUCUCAACUAUGACACGCAAAACGCGUGCUCCGUGGAAUGUAGUUGAUCAUG [U135G G141U U146G] | ≤ -4.2
33 | GGAUCUUCUCGAUCUAACAAAAAAGACAAAUCUGCCACAAAGCUUGAGAGCAUCUUCGGAUGCAGAGGCGGCAGCCUUCGGUGGCGCGAUAGCGCCAACGUUCUCAACUAUGACACGCAAAACGCGUGCUCCGAUGAAUGGAGUUUAGCAUG [U134A U148G] | ≤ -4.2
34 | GGAUCUUCUCGAUCUAACAAAAAAGACAAAUCUGCCACAAAGCUUGAGAGCAUCUUCGGAUGCAGAGGCGGCAGCCUUCGGUGGCGCGAUAGCGCCAACGUUCUCAACUAUGACACGCAAAACGCGUGCUCCGUUGACAGGAGUUUAUCAUG [A138C U139A] | -3.78
35 | GGAUCUUCUCGAUCUAACAAAAAAGACAAAUCUGCCACAAAGCUUGAGAGCAUCUUCGGAUGCAGAGGCGGCAGCCUUCGGUGGCGCGAUAGCGCCAACGUUCUCAACUAUGACACGCAAAACGCGUGCUCCGUUGAUUGCAGUUUAUCAUG [A138U G141C] | -3.88
36 | GGAUCUUCUCGAUCUAACAAAAAAGACAAAUCUGCCACAAAGCUUGAGAGCAUCUUCGGAUGCAGAGGCGGCAGCCUUCGGUGGCGCGAUAGCGCCAACGUUCUCAACUAUGACACGCAAAACGCGUGCUCCGUACAAUGGAGUUUAUCAUG [U135A G136C] | -4.14
37 | GGAUCUUCUCGAUCUAACAAAAAAGACAAAUCUGCCACAAAGCUUGAGAGCAUCUUCGGAUGCAGAGGCGGCAGCCUUCGGUGGCGCGAUAGCGCCAACGUUCUCAACUAUGACACGCAAAACGCGUGCUCCGUUGAAAGGAUUUGAUCAUG [U139A G143U U146G] | -3.74
38 | GGAUCUUCUCGAUCUAACAAAAAAGACAAAUCUGCCACAAAGCUUGAGAGCAUCUUCGGAUGCAGAGGCGGCAGCCUUCGGUGGCGCGAUAGCGCCAACGUUCUCAACUAUGACACGCAAAACGCGUGCUCCGUUGAAAGGAGAUUAUCAUG [U139A U144A] | -4.15

From the RNAGym collection of RNA variant scans (doi:10.1073/pnas.2313332121)
